Assay results as given in the supplement of paper PMC10065799, “High-throughput profiling of sequence recognition by tyrosine kinases and SH2 domains using bacterial peptide display” (eLife, 2023).

Target: FGFR3 (UniProt P22607)
Assay: phosphorylation enrichment, bacterial display (enrichment ratio); higher = better substrate or ligand; peptides without Tyr show the background
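Also: 11-residue human phosphosite peptides and single-mutation variants displayed on the E. coli surface, counted by deep sequencing, each peptide's frequency after selection divided by its frequency in the unselected input library; frequency after pTyr selection over input frequency; kinase dosed for 20-30% of maximal phosphorylation in three min.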

Chain of FGFR3 (P22607 whole entry, looked up): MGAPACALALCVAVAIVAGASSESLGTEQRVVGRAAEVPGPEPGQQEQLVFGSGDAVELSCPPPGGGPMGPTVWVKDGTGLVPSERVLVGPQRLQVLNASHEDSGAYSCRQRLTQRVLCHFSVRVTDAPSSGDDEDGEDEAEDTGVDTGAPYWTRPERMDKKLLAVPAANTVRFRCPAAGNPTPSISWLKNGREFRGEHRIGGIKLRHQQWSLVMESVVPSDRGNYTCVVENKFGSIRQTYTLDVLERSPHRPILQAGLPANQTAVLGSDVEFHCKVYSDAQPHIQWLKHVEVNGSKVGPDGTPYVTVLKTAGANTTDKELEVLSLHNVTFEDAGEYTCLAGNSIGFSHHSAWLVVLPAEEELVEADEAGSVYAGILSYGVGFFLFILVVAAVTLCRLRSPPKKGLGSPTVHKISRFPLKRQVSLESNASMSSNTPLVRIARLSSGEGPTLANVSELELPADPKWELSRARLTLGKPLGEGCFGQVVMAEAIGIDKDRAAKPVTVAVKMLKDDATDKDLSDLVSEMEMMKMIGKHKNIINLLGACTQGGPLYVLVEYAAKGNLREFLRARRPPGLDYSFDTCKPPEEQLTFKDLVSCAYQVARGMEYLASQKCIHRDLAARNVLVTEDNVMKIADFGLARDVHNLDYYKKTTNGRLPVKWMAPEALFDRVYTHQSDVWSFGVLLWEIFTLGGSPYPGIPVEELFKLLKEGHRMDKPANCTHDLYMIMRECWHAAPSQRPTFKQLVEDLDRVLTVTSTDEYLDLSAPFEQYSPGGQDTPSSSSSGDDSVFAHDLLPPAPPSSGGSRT

| Sequence | phosphorylation enrichment |
| --- | --- |
| VYLGAYDRFLP [SLC22A5_Y486] | 0.803 |
| FLGEEYVKAVG [TF_Y674_YF] | 0.582 |
| DLEKTYNTYRS [B4GALNT2_Y538_A533D] | 0.703 |
| MRNDLYQTPLH [NFKB1_Y582] | 0.57 |
| KHCEDYVCSFN [DSC1_Y846_YF] | 0.681 |
| GVYSRHFTTYD [CLCA1_Y661_Y661H] | 0.508 |
| PSARTYCFKQE [KLHDC9_Y175_YF] | 0.571 |
| LFHENYNAGTF [CFI_Y421_I416L_YF] | 0.941 |
| ELAKYYKLHHI [AK7_Y391_N389K] | 0.677 |
| PEVSGYCHCAD [TG_Y234] | 1.56 |
| DPNQQYFIAMD [TBX15_Y159_H156N_YF] | 0.866 |
| GSERRYTREGG [PTPRN2_Y139_S140T] | 0.407 |
| SQQTFYPVSNM [ABCD1_Y181_R182P_YF] | 0.513 |
| EFKDAYKFAAD [BRDT_Y335_YF] | 0.524 |
| KTSGNYLAVTG [WDR19_Y28] | 0.457 |
| TFGVAYRAKDK [CDK11B_Y453_V452A_YF] | 0.484 |
| SGGSSYGSGGC [KRT1_Y532_G537C] | 0.667 |
| PTDCVYVMPTV [MYO7A_Y1668_S1666C] | 3.92 |
| TLQSMYGCDLG [HLA-B_Y123_V127L] | 0.858 |
| SLDHPFEKPRK [INAVA_Y333_Y333F] | 0.524 |
| GRTNICKNKKD [SLC26A3_Y520_Y520C] | 0.911 |
| AGADGYDFLAP [FOXL2_Y186_G187D_YF] | 0.744 |
| VISNAYVDLAP [HSD17B4_Y602] | 0.653 |
| PPNSPYIGSSP [KCNT1_Y740] | 0.362 |
| CEQELYSQLVY [WAS_Y102_W97C] | 3.67 |
| FFTEEYVRAHP [DOCK2_Y1555_D1558A] | 0.944 |
| HRGFLYLAIEF [TEK_Y899_Y897F_YF] | 1.02 |
| AYRHGYFDEEM [PLEC_Y2971_R2969H] | 0.657 |
| KGIQLYDTPYE [SHB_Y297] | 0.695 |

Test system: Fer (mouse)
Assay: as above

| Sequence | phosphorylation enrichment |
| --- | --- |
| VYLGAYDRFLP [SLC22A5_Y486] | 1.88 |
| FLGEEYVKAVG [TF_Y674_YF] | 0.58 |
| DLEKTYNTYRS [B4GALNT2_Y538_A533D] | 0.401 |
| MRNDLYQTPLH [NFKB1_Y582] | 4.12 |
| KHCEDYVCSFN [DSC1_Y846_YF] | 0.525 |
| GVYSRHFTTYD [CLCA1_Y661_Y661H] | 0.642 |
| PSARTYCFKQE [KLHDC9_Y175_YF] | 0.415 |
| LFHENYNAGTF [CFI_Y421_I416L_YF] | 0.822 |
| ELAKYYKLHHI [AK7_Y391_N389K] | 0.461 |
| PEVSGYCHCAD [TG_Y234] | 1.14 |
| DPNQQYFIAMD [TBX15_Y159_H156N_YF] | 0.403 |
| GSERRYTREGG [PTPRN2_Y139_S140T] | 0.351 |
| SQQTFYPVSNM [ABCD1_Y181_R182P_YF] | 0.318 |
| EFKDAYKFAAD [BRDT_Y335_YF] | 0.408 |
| KTSGNYLAVTG [WDR19_Y28] | 0.404 |
| TFGVAYRAKDK [CDK11B_Y453_V452A_YF] | 0.342 |
| SGGSSYGSGGC [KRT1_Y532_G537C] | 0.53 |
| PTDCVYVMPTV [MYO7A_Y1668_S1666C] | 1.08 |
| TLQSMYGCDLG [HLA-B_Y123_V127L] | 0.659 |
| SLDHPFEKPRK [INAVA_Y333_Y333F] | 0.3 |
| GRTNICKNKKD [SLC26A3_Y520_Y520C] | 0.448 |
| AGADGYDFLAP [FOXL2_Y186_G187D_YF] | 0.598 |
| VISNAYVDLAP [HSD17B4_Y602] | 0.516 |
| PPNSPYIGSSP [KCNT1_Y740] | 0.382 |
| CEQELYSQLVY [WAS_Y102_W97C] | 11.2 |
| FFTEEYVRAHP [DOCK2_Y1555_D1558A] | 0.553 |
| HRGFLYLAIEF [TEK_Y899_Y897F_YF] | 0.968 |
| AYRHGYFDEEM [PLEC_Y2971_R2969H] | 0.526 |
| KGIQLYDTPYE [SHB_Y297] | 3.26 |

Target: Fes (UniProt P07332)
Sequence (P07332 whole entry, looked up): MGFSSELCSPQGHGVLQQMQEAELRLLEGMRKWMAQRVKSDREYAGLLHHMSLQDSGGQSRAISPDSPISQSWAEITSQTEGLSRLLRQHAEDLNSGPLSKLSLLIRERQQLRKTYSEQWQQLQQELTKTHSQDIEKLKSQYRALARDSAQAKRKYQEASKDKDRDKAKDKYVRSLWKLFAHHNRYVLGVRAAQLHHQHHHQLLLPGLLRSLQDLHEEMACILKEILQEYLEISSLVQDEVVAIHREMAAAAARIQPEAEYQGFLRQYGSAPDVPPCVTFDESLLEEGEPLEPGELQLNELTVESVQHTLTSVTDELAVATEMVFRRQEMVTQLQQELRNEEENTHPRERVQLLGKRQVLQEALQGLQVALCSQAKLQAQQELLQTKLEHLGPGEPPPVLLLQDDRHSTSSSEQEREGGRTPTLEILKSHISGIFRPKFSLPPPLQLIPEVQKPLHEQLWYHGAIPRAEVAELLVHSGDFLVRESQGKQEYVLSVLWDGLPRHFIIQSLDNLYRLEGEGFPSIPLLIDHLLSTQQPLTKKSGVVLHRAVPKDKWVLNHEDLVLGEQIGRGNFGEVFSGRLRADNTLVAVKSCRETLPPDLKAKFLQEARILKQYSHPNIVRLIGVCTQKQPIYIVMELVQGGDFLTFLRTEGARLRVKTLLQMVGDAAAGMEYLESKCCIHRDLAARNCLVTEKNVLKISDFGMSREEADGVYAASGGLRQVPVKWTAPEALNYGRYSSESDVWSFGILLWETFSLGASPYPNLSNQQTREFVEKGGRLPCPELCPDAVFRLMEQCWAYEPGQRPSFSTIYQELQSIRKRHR
Assay: as above

| Sequence | phosphorylation enrichment |
| --- | --- |
| VYLGAYDRFLP [SLC22A5_Y486] | 0.992 |
| FLGEEYVKAVG [TF_Y674_YF] | 0.879 |
| DLEKTYNTYRS [B4GALNT2_Y538_A533D] | 0.788 |
| MRNDLYQTPLH [NFKB1_Y582] | 0.845 |
| KHCEDYVCSFN [DSC1_Y846_YF] | 1.08 |
| GVYSRHFTTYD [CLCA1_Y661_Y661H] | 0.657 |
| PSARTYCFKQE [KLHDC9_Y175_YF] | 0.802 |
| LFHENYNAGTF [CFI_Y421_I416L_YF] | 1.11 |
| ELAKYYKLHHI [AK7_Y391_N389K] | 0.827 |
| PEVSGYCHCAD [TG_Y234] | 2.79 |
| DPNQQYFIAMD [TBX15_Y159_H156N_YF] | 0.934 |
| GSERRYTREGG [PTPRN2_Y139_S140T] | 0.583 |
| SQQTFYPVSNM [ABCD1_Y181_R182P_YF] | 0.654 |
| EFKDAYKFAAD [BRDT_Y335_YF] | 0.731 |
| KTSGNYLAVTG [WDR19_Y28] | 0.57 |
| TFGVAYRAKDK [CDK11B_Y453_V452A_YF] | 1.03 |
| SGGSSYGSGGC [KRT1_Y532_G537C] | 0.932 |
| PTDCVYVMPTV [MYO7A_Y1668_S1666C] | 1.06 |
| TLQSMYGCDLG [HLA-B_Y123_V127L] | 1.38 |
| SLDHPFEKPRK [INAVA_Y333_Y333F] | 0.749 |
| GRTNICKNKKD [SLC26A3_Y520_Y520C] | 0.973 |
| AGADGYDFLAP [FOXL2_Y186_G187D_YF] | 1.17 |
| VISNAYVDLAP [HSD17B4_Y602] | 0.777 |
| PPNSPYIGSSP [KCNT1_Y740] | 0.557 |
| CEQELYSQLVY [WAS_Y102_W97C] | 1.81 |
| FFTEEYVRAHP [DOCK2_Y1555_D1558A] | 1.32 |
| HRGFLYLAIEF [TEK_Y899_Y897F_YF] | 1.67 |
| AYRHGYFDEEM [PLEC_Y2971_R2969H] | 1.05 |
| KGIQLYDTPYE [SHB_Y297] | 1.04 |

Target: Fyn (UniProt P06241)
Sequence (P06241 whole entry, looked up): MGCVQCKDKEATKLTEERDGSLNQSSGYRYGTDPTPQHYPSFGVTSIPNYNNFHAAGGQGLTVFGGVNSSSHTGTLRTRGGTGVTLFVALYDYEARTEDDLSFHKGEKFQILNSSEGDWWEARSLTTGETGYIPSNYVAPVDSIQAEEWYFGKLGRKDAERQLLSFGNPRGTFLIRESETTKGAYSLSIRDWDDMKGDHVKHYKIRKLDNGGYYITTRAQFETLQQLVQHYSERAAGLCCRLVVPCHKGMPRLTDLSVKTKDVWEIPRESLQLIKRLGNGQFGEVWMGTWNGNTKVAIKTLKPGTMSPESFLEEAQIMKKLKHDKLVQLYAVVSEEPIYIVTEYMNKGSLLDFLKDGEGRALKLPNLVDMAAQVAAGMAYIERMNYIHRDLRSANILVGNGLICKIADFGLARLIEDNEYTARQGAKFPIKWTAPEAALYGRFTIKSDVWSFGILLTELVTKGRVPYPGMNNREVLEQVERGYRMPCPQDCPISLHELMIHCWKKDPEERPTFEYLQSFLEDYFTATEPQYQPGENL
Assay: as above

| Sequence | phosphorylation enrichment |
| --- | --- |
| VYLGAYDRFLP [SLC22A5_Y486] | 4.5 |
| FLGEEYVKAVG [TF_Y674_YF] | 0.373 |
| DLEKTYNTYRS [B4GALNT2_Y538_A533D] | 0.845 |
| MRNDLYQTPLH [NFKB1_Y582] | 1.8 |
| KHCEDYVCSFN [DSC1_Y846_YF] | 0.473 |
| GVYSRHFTTYD [CLCA1_Y661_Y661H] | 0.648 |
| PSARTYCFKQE [KLHDC9_Y175_YF] | 0.622 |
| LFHENYNAGTF [CFI_Y421_I416L_YF] | 0.683 |
| ELAKYYKLHHI [AK7_Y391_N389K] | 0.41 |
| PEVSGYCHCAD [TG_Y234] | 0.976 |
| DPNQQYFIAMD [TBX15_Y159_H156N_YF] | 0.444 |
| GSERRYTREGG [PTPRN2_Y139_S140T] | 0.319 |
| SQQTFYPVSNM [ABCD1_Y181_R182P_YF] | 0.419 |
| EFKDAYKFAAD [BRDT_Y335_YF] | 0.414 |
| KTSGNYLAVTG [WDR19_Y28] | 0.536 |
| TFGVAYRAKDK [CDK11B_Y453_V452A_YF] | 0.437 |
| SGGSSYGSGGC [KRT1_Y532_G537C] | 0.465 |
| PTDCVYVMPTV [MYO7A_Y1668_S1666C] | 8.41 |
| TLQSMYGCDLG [HLA-B_Y123_V127L] | 0.576 |
| SLDHPFEKPRK [INAVA_Y333_Y333F] | 0.721 |
| GRTNICKNKKD [SLC26A3_Y520_Y520C] | 0.331 |
| AGADGYDFLAP [FOXL2_Y186_G187D_YF] | 0.452 |
| VISNAYVDLAP [HSD17B4_Y602] | 0.428 |
| PPNSPYIGSSP [KCNT1_Y740] | 0.464 |
| CEQELYSQLVY [WAS_Y102_W97C] | 6.54 |
| FFTEEYVRAHP [DOCK2_Y1555_D1558A] | 0.697 |
| HRGFLYLAIEF [TEK_Y899_Y897F_YF] | 0.352 |
| AYRHGYFDEEM [PLEC_Y2971_R2969H] | 0.593 |
| KGIQLYDTPYE [SHB_Y297] | 0.891 |
